Key:
[1] = target: SIAH1-SBD (substrate-binding domain of E3 ubiquitin-protein ligase SIAH1, residues 89-282) (human) (UniProt Q8IUQ4); assay: ITC; ITC200, 25 °C; 20 mM Tris-HCl pH8.0, 100 mM NaCl; 330 μM Axin2 peptide injected into 30 μM SIAH1; single binding site model
[2] = target: SIAH1-SBD (89-282) F165A (human) (UniProt Q8IUQ4); assay: as above
[3] = target: T1, SIAH1-SBD (substrate-binding domain of E3 ubiquitin-protein ligase SIAH1, residues 89-282) (human, UniProt Q8IUQ4-1 89-282); assay: ITC
T1 chain: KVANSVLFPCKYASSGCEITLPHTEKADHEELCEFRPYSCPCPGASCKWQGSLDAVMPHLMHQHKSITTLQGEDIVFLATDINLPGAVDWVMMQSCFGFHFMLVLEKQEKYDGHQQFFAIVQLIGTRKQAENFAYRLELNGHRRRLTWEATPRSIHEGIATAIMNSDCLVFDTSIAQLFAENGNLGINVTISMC

[4] = target: T2, SIAH1-SBD (substrate-binding domain of E3 ubiquitin-protein ligase SIAH1, residues 89-282) (human, UniProt Q8IUQ4-1 89-282); assay: BLI; Octet Red96; GST-Axin2-GBD or its deletion loaded onto GST biosensors, quenched with GST; dipped into SIAH1-SBD at 0.03-30 μM; free-GST biosensors as controls; details: both partners purified
T2 construct: Cloned from HeLa cDNA into pET28a with a TEV site at the N-terminal; The PDB code is printed as 8HEO in the results and as 8HE0 in the data availability statement; also called SIAH1-SBD_(89–282); SBD of SIAH1; source: E. coli BL21(DE3), purified (Ni-NTA, His-tag cleavage by TEV, Ni-NTA, HiTrap Q, Superdex 200); not shown: His tag, N-terminal, cleaved
T2 sequence (looked up): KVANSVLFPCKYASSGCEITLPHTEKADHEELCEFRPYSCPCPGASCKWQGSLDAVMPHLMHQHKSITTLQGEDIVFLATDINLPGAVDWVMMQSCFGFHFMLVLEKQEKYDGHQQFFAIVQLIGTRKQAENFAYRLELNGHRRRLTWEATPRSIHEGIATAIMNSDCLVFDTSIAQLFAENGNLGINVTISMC

[5] = target: T2, SIAH1-SBD (substrate-binding domain of …); assay: crystal structure; SIAH1-SBD mixed with Axin2 (356–376) at a molar ratio of 1:5; 0.1 M Bis-tris propane pH8.4, 24% PEG6000, 4 °C; 2.53 Å; details: both partners purified
[6] = target: T3, wt Axin2_(356–368) peptide used in ITC, Q9Y2T1; assay: ITC; details: chain shown with the change;; parent: 8.77
T3 chain: HRLPKEMTPVEPA

**Q.** How did the Kd [1] turn out when “Axin2_(356–368) E366A (from UniProt Q9Y2T1 356-368) (peptide)” was run?
**A.** 97.1 µM

**Q.** “wt Axin2_(356–368) peptide used in ITC (from UniProt Q9Y2T1 356-368)” was tested. Which Kd [2] did it give?
**A.** 14.4 µM

**Q.** And the Kd [1]?
**A.** 8.77 µM

**Q.** And the stoichiometry N [1]?
**A.** 1

B1: Axin2_(356–368) single mutant T363A (peptide)
chain: HRLPKEMAPVEPATFAAELIS
**Q.** Which Kd [3] does the source give for B1 here?
**A.** 8.7 µM

B2: GST-Axin2-GBD (GSK3 binding domain of Axin2, residues 334-432, with a GST-tag) (domain or fragment, human, UniProt Q9Y2T1 334-432, looked up)
chain: QREMHRSVKANGQVSLPHFPRTHRLPKEMTPVEPATFAAELISRLEKLKLELESRHSLEERLQQIREDEEREGSELTLNSREGAPTQHPLSLLPSGSYE
notes: pGEX-6p-1 construct; also called Axin-GDB; source: E. coli BL21 (DE3), purified (glutathione sepharose 4B); not shown: GST, N-terminal, kept
**Q.** For B2, which Kd [4] is on record?
**A.** ~2.2 µM

B3: Axin2 (residues 356–376) (peptide, UniProt Q9Y2T1 356-376, looked up)
chain: HRLPKEMTPVEPATFAAELIS
notes: human Axin2 (GenBank NM_004655.4), residues 356-376 within the GBD; also called Axin2_(356–376); Axin2 peptide; source: E. coli BL21 (DE3), purified (glutathione sepharose 4B, GST removed by PreScission protease, Superdex 75); not shown: GST, N-terminal, cleaved
**Q.** Does B3 bind [5]?
**A.** binds

B4: SIAH1-SBD (substrate-binding domain of E3 ubiquitin-protein ligase SIAH1, residues 89-282), Q8IUQ4-1 Q159A (protein)
chain: KVANSVLFPCKYASSGCEITLPHTEKADHEELCEFRPYSCPCPGASCKWQGSLDAVMPHLMHQHKSITTLAGEDIVFLATDINLPGAVDWVMMQSCFGFHFMLVLEKQEKYDGHQQFFAIVQLIGTRKQAENFAYRLELNGHRRRLTWEATPRSIHEGIATAIMNSDCLVFDTSIAQLFAENGNLGINVTISMC
**Q.** Which Kd [6] does the source give for B4 here?
**A.** 9.1 µM

B5: SIAH1-SBD (substrate-binding domain of E3 ubiquitin-protein ligase SIAH1, residues 89-282), Q8IUQ4-1 T156A (protein)
chain: KVANSVLFPCKYASSGCEITLPHTEKADHEELCEFRPYSCPCPGASCKWQGSLDAVMPHLMHQHKSIATLQGEDIVFLATDINLPGAVDWVMMQSCFGFHFMLVLEKQEKYDGHQQFFAIVQLIGTRKQAENFAYRLELNGHRRRLTWEATPRSIHEGIATAIMNSDCLVFDTSIAQLFAENGNLGINVTISMC
**Q.** For B5, which Kd [6] is on record?
**A.** 10.5 µM
